Experiments:
[1] = target: Soc-SpyCatcher displayed on the T4 phage capsid (T4-SpyCatcher phage) (bacteriophage T4); experiment: co-sedimentation; T4-SpyCatcher phage incubated with SpyTagged S-ecto or HA-stem trimers alone at increasing ratios of trimer to Soc binding sites, 4 °C, 1-2 h, PBS pH 7.4; sedimented at 34 000 g, pellets washed twice, SDS-PAGE and band quantification; covalent SpyCatcher-SpyTag conjugation
[2] = target: Soc-SpyCatcher displayed on the T4 phage capsid (T4-SpyCatcher phage) (bacteriophage T4); experiment: co-sedimentation; sequential co-display on T4-SpyCatcher phage: HA-stem trimers added first, incubated, then S-ecto trimers at 1:1; 4 °C, PBS pH 7.4; SDS-PAGE quantification
[3] = target: Soc-SpyCatcher displayed on the T4 phage capsid (T4-SpyCatcher phage) (bacteriophage T4); experiment: co-sedimentation; sequential co-display on T4-SpyCatcher phage: S-ecto trimers added first at a 0.25:1 ratio, incubated, then HA-stem trimers added at a 1:1 ratio; 4 °C, PBS pH 7.4; SDS-PAGE quantification

Substance: Prefusion-stabilized SARS-CoV-2 spike ectodomain trimer with C-terminal SpyTag (from UniProt P0DTC2 14-1208) (domain or fragment)
- copies per capsid (copies per capsid) [1]: 118
- copies per capsid (copies per capsid) [2]: 35
- copies per capsid (copies per capsid) [3]: 56

— article PMC12245071
